Tested on: peptide library, one residue held at a place counted from the S/T acceptor
Experiment: relative phosphorylation of the sub-library (ratio to the mean residue at this position); human; higher = residue favoured
Procedure, shortened: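 Purified recombinant kinases (human or orthologue constructs) were incubated in 384-well plates with biotinylated degenerate peptide sub-libraries, each fixing one residue at one position around a central Ser/Thr. Peptides were at 50 μM, with 50 μM ATP spiked with γ-32P-ATP, for 90 min under kinase-specific conditions. Spots on streptavidin membranes were phosphorimaged and quantified by densitometry. Relative sub-library phosphorylation is a ratio to the mean residue at that position.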

NEK1, construct: aa1-505, sequence (Q96PY6 1-505, looked up): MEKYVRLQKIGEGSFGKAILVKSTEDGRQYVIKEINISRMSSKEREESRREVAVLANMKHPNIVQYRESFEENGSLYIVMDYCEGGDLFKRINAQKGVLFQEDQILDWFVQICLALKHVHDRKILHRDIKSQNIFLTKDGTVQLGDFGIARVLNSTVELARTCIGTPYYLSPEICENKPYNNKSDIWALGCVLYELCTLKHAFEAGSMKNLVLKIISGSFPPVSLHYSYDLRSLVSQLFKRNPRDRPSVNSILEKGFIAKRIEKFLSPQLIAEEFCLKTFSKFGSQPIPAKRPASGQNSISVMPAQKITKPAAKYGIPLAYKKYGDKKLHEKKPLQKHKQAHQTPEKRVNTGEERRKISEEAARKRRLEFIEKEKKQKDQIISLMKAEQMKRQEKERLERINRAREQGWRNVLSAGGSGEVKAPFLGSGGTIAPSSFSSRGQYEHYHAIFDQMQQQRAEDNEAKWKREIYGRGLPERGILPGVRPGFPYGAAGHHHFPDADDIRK
GRK5, construct: Full length, sequence (P34947 whole entry, looked up): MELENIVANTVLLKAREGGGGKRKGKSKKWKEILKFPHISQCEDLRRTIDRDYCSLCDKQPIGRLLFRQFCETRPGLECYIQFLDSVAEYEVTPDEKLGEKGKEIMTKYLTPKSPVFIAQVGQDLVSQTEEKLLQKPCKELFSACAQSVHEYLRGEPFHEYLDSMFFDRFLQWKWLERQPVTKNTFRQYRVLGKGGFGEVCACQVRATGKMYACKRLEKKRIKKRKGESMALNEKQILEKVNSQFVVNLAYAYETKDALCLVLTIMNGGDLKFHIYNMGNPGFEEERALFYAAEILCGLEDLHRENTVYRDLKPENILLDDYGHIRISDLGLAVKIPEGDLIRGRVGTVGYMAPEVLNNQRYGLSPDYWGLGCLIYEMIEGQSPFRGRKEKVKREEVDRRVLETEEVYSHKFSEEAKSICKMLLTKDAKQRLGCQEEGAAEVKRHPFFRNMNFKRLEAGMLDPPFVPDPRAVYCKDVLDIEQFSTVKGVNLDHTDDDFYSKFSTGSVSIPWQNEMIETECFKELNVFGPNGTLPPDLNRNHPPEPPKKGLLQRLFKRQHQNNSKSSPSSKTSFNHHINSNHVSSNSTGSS
IKBKE, construct: Full length, sequence (Q14164 whole entry, looked up): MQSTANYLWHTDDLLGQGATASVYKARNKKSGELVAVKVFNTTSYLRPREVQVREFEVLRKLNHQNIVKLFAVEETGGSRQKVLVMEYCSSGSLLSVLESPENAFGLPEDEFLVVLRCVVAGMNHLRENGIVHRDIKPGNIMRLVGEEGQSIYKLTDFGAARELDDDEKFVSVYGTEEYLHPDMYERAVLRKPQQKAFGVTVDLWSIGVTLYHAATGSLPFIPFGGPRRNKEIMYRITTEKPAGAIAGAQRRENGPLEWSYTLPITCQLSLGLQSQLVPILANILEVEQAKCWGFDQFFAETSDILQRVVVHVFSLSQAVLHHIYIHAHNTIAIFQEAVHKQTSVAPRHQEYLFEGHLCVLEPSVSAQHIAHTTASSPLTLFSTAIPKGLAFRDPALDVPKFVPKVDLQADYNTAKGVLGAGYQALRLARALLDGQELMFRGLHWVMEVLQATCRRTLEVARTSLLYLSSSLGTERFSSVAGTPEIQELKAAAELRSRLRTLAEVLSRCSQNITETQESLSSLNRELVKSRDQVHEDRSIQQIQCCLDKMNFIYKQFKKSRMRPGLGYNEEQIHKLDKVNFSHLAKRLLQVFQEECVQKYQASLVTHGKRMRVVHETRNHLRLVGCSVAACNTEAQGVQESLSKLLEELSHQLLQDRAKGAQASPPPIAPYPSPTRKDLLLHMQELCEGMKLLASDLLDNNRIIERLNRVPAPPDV

NEK1, construct: aa1-505 (from UniProt Q96PY6)
relative phosphorylation
Settings | at +1 | at +2 | at +3 | at +4 | at -1 | at -2 | at -3 | at -4 | at -5
A fixed | 0.882 | 1.08 | 0.91 | 1.02 | 1.2 | 1 | 0.996 | 1.04 | 0.968
D fixed | 0.22 | 0.456 | 0.504 | 0.774 | 0.566 | 0.69 | 0.378 | 0.781 | 0.764
E fixed | 0.268 | 0.389 | 0.41 | 0.732 | 0.713 | 0.706 | 0.373 | 0.785 | 0.678
F fixed | 1.36 | 0.744 | 1.2 | 0.804 | 0.891 | 0.98 | 1.61 | 1.06 | 1.15
G fixed | 1.11 | 0.85 | 1.05 | 1.18 | 1.3 | 1.2 | 1.41 | 1.3 | 1.06
H fixed | 1.02 | 1.22 | 1.03 | 1.11 | 1.21 | 1.08 | 1.14 | 0.962 | 1.05
I fixed | 1.27 | 0.769 | 0.991 | 0.792 | 0.424 | 0.849 | 0.571 | 0.844 | 0.858
K fixed | 1.16 | 2.06 | 1.03 | 1.38 | 1.46 | 0.75 | 1.03 | 1.33 | 1.24
L fixed | 1.32 | 0.939 | 1.17 | 1 | 1.08 | 1.58 | 1.82 | 1.12 | 1.1
M fixed | 1.67 | 0.975 | 0.907 | 0.93 | 1.41 | 1.24 | 1.62 | 0.996 | 1.13
N fixed | 0.61 | 1.02 | 0.935 | 0.912 | 1.05 | 1.29 | 0.629 | 0.87 | 0.959
P fixed | 0.142 | 0.95 | 1.12 | 1.15 | 0.558 | 0.677 | 1.25 | 1.14 | 1.4
Q fixed | 1.05 | 0.706 | 0.724 | 1.01 | 0.889 | 1.04 | 0.668 | 0.799 | 0.889
R fixed | 1.51 | 2.21 | 1.63 | 1.38 | 1.57 | 1.27 | 0.919 | 1.08 | 1.15
V fixed | 0.958 | 0.914 | 0.851 | 0.78 | 0.522 | 0.713 | 0.444 | 0.783 | 0.82
W fixed | 1.27 | 0.727 | 1.37 | 1.29 | 0.895 | 1.04 | 1.08 | 1.23 | 0.947
Y fixed | 1.18 | 0.996 | 1.18 | 0.738 | 1.26 | 0.89 | 1.06 | 0.887 | 0.835
pThr fixed | 0.424 | 0.571 | 0.507 | 0.579 | 0.323 | 0.516 | 0.508 | 0.746 | 0.905
pTyr fixed | 0.397 | 0.434 | 0.642 | 0.547 | 0.707 | 0.523 | 0.648 | 0.851 | 1.03

GRK5, construct: Full length (from UniProt P34947)
relative phosphorylation
Settings | at +1 | at +2 | at +3 | at +4 | at -1 | at -2 | at -3 | at -4 | at -5
A fixed | 0.822 | 1.35 | 0.828 | 0.969 | 0.728 | 0.802 | 0.852 | 1.03 | 1.06
D fixed | 0.996 | 1.03 | 1.73 | 1.58 | 1.08 | 0.951 | 1.27 | 1.28 | 1.27
E fixed | 2.19 | 0.721 | 1.96 | 1.25 | 0.863 | 1.01 | 1.19 | 1.15 | 1.05
F fixed | 0.966 | 0.879 | 1.06 | 0.823 | 0.867 | 1.67 | 0.85 | 0.912 | 0.967
G fixed | 0.768 | 1.06 | 0.998 | 0.976 | 0.694 | 0.932 | 1.02 | 1.08 | 1.16
H fixed | 0.895 | 0.953 | 1.05 | 0.964 | 1.7 | 0.88 | 1.17 | 0.932 | 1.03
I fixed | 1.01 | 1.15 | 0.61 | 0.762 | 0.732 | 0.735 | 0.828 | 0.863 | 0.892
K fixed | 0.804 | 0.947 | 0.767 | 1.04 | 0.909 | 0.871 | 0.788 | 0.831 | 0.861
L fixed | 0.81 | 0.735 | 0.717 | 0.662 | 0.874 | 0.765 | 0.707 | 0.891 | 0.82
M fixed | 1.04 | 0.841 | 0.724 | 0.723 | 0.829 | 0.738 | 0.792 | 0.887 | 0.817
N fixed | 0.888 | 0.905 | 0.721 | 0.911 | 1.19 | 0.889 | 1.04 | 0.984 | 0.94
P fixed | 0.564 | 0.73 | 0.997 | 1.48 | 0.986 | 0.838 | 0.977 | 1.19 | 1.02
Q fixed | 1.21 | 0.74 | 0.808 | 1.01 | 0.872 | 0.737 | 0.867 | 0.85 | 0.789
R fixed | 1.13 | 1.12 | 0.927 | 0.899 | 1.12 | 1.05 | 1.04 | 0.87 | 0.806
V fixed | 1.06 | 1.51 | 0.705 | 0.867 | 1.07 | 0.751 | 1.5 | 0.955 | 1.06
W fixed | 0.944 | 1.3 | 1.35 | 1.1 | 0.933 | 2.08 | 1.13 | 1.23 | 1.32
Y fixed | 0.898 | 1.03 | 1.06 | 0.982 | 1.55 | 1.3 | 0.969 | 1.08 | 1.13
pThr fixed | 2.07 | 0.82 | 1.27 | 2.47 | 0.587 | 1.43 | 2.65 | 1.75 | 1.36
pTyr fixed | 2.19 | 0.868 | 1.08 | 1.37 | 0.964 | 2.77 | 2.56 | 2.29 | 1.88

IKBKE, construct: Full length (from UniProt Q14164)
relative phosphorylation
Settings | at +1 | at +2 | at +3 | at +4 | at -1 | at -2 | at -3 | at -4 | at -5
A fixed | 0.346 | 1.18 | 0.935 | 0.899 | 0.911 | 0.889 | 1.11 | 1.12 | 1.26
D fixed | 0.306 | 1.07 | 0.898 | 0.987 | 1.04 | 1.25 | 1.24 | 1.35 | 1.34
E fixed | 0.22 | 0.933 | 0.928 | 1.01 | 0.97 | 0.821 | 1.2 | 1.23 | 1.27
F fixed | 1.6 | 0.967 | 1.22 | 1.12 | 1.03 | 1.65 | 0.755 | 0.829 | 0.992
G fixed | 0.423 | 0.811 | 0.961 | 0.879 | 0.677 | 0.857 | 1.42 | 1.44 | 1.21
H fixed | 0.688 | 1.14 | 1.24 | 1.15 | 1.11 | 0.99 | 1.09 | 1.08 | 1.14
I fixed | 2.51 | 1.06 | 0.853 | 0.964 | 0.899 | 0.528 | 0.632 | 0.796 | 0.742
K fixed | 0.219 | 0.714 | 0.471 | 0.672 | 0.849 | 0.563 | 0.819 | 0.88 | 0.927
L fixed | 3.41 | 1.08 | 0.887 | 0.994 | 1.18 | 1.11 | 0.743 | 0.94 | 0.753
M fixed | 3.08 | 1.18 | 1.11 | 1.03 | 1.28 | 1.65 | 1.07 | 0.928 | 0.808
N fixed | 0.323 | 1.04 | 0.9 | 0.854 | 0.916 | 0.916 | 1.12 | 1.01 | 1.06
P fixed | 0.178 | 0.893 | 1.14 | 1.1 | 1.12 | 1.13 | 1.3 | 1.06 | 0.959
Q fixed | 0.292 | 1.07 | 0.835 | 0.839 | 0.89 | 0.796 | 1.05 | 0.942 | 0.827
R fixed | 0.248 | 0.931 | 0.626 | 0.721 | 0.955 | 0.62 | 0.968 | 0.845 | 0.965
V fixed | 1.04 | 1.22 | 0.936 | 0.926 | 0.986 | 0.544 | 0.672 | 0.665 | 0.861
W fixed | 1 | 0.876 | 1.33 | 1.65 | 0.94 | 0.934 | 0.826 | 0.955 | 0.922
Y fixed | 1.12 | 0.831 | 1.74 | 1.21 | 1.24 | 1.76 | 0.995 | 0.918 | 0.974
pThr fixed | 0.471 | 1.03 | 0.717 | 1.04 | 0.722 | 0.757 | 1.13 | 1.18 | 1
pTyr fixed | 0.448 | 0.8 | 1.07 | 0.934 | 1.18 | 1.29 | 1.67 | 1.13 | 1.03

Source: the supplement of paper PMC9876800
